# Earlier results as cited in PMC7424061.
# Target: p53 TAD (Homo sapiens) (UniProt P04637)
# Sequence (P04637 1-61): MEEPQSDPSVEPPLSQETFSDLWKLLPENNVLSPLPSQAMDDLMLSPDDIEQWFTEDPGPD
# Chain of azurin (P00282 21-148): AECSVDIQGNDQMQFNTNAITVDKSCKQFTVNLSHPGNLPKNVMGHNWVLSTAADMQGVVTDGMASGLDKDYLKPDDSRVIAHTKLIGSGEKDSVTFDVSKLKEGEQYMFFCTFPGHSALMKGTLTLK
substance,measurement,value
azurin (from UniProt P00282),Kd,7 µM
